Source: paper PMC4417153 (Nucleic Acids Research, 2015)
Where “and” joins values, the source holds several entries; their conditions need not be identical. Equal values may be shown once.

B1: Twinkle (human mitochondrial replicative helicase), mature, aa 43-684, produced in E. coli (enzyme, UniProt Q96RR1 43-684, looked up)
chain: ETLQALDMPVLPVTATEIRQYLRGHGIPFQDGHSCLRALSPFAESSQLKGQTGVTTSFSLFIDKTTGHFLCMTSLAEGSWEDFQASVEGRGDGAREGFLLSKAPEFEDSEEVRRIWNRAIPLWELPDQEEVQLADTMFGLTKVTDDTLKRFSVRYLRPARSLVFPWFSPGGSGLRGLKLLEAKCQGDGVSYEETTIPRPSAYHNLFGLPLISRRDAEVVLTSRELDSLALNQSTGLPTLTLPRGTTCLPPALLPYLEQFRRIVFWLGDDLRSWEAAKLFARKLNPKRCFLVRPGDQQPRPLEALNGGFNLSRILRTALPAWHKSIVSFRQLREEVLGELSNVEQAAGLRWSRFPDLNRILKGHRKGELTVFTGPTGSGKTTFISEYALDLCSQGVNTLWGSFEISNVRLARVMLTQFAEGRLEDQLDKYDHWADRFEDLPLYFMTFHGQQSIRTVIDTMQHAVYVYDICHVIIDNLQFMMGHEQLSTDRIAAQDYIIGVFRKFATDNNCHVTLVIHPRKEDDDKELQTASIFGSAKASQEADNVLILQDRKLVTGPGKRYLQVSKNRFDGDVGVFPLEFNKNSLTFSIPPKNKARLKKIKDDTGPVAKKPSSGKKGATTQNSEICSGQAPTPDQPDTSKRSK
B2: Twinkle (human mitochondrial replicative helicase), aa 30-684, produced in SF9 insect cells (enzyme, UniProt Q96RR1 30-684, looked up)
chain: NLAPGPPRRRYRKETLQALDMPVLPVTATEIRQYLRGHGIPFQDGHSCLRALSPFAESSQLKGQTGVTTSFSLFIDKTTGHFLCMTSLAEGSWEDFQASVEGRGDGAREGFLLSKAPEFEDSEEVRRIWNRAIPLWELPDQEEVQLADTMFGLTKVTDDTLKRFSVRYLRPARSLVFPWFSPGGSGLRGLKLLEAKCQGDGVSYEETTIPRPSAYHNLFGLPLISRRDAEVVLTSRELDSLALNQSTGLPTLTLPRGTTCLPPALLPYLEQFRRIVFWLGDDLRSWEAAKLFARKLNPKRCFLVRPGDQQPRPLEALNGGFNLSRILRTALPAWHKSIVSFRQLREEVLGELSNVEQAAGLRWSRFPDLNRILKGHRKGELTVFTGPTGSGKTTFISEYALDLCSQGVNTLWGSFEISNVRLARVMLTQFAEGRLEDQLDKYDHWADRFEDLPLYFMTFHGQQSIRTVIDTMQHAVYVYDICHVIIDNLQFMMGHEQLSTDRIAAQDYIIGVFRKFATDNNCHVTLVIHPRKEDDDKELQTASIFGSAKASQEADNVLILQDRKLVTGPGKRYLQVSKNRFDGDVGVFPLEFNKNSLTFSIPPKNKARLKKIKDDTGPVAKKPSSGKKGATTQNSEICSGQAPTPDQPDTSKRSK

Legend:
[1] = target: the molecule itself; assay: SAXS
[2] = target: the molecule itself; assay: negative staining EM

Protein	stoichiometry N [1]	stoichiometry N [2]
B1	7	6
B2	–	6 and 7
